Non-standard residues stand in square brackets, D forms with d. No end group written: not given here. *: point of attachment. NH(3,5-(CF3)2-benzyl) = FC(F)(F)c1cc(CN*)cc(C(F)(F)F)c1; NMePhe(4-F) = CN[C@@H](Cc1ccc(F)cc1)C(=O)O; Phe(4-F) = N[C@@H](Cc1ccc(F)cc1)C(=O)O; Dmt = Cc1cc(O)cc(C)c1C[C@H](N)C(=O)O; NMeF = CN[C@@H](Cc1ccccc1)C(=O)O; NHBn = c1ccc(CN*)cc1
T1: human NK1 receptor (human, UniProt P25103)
T1 chain: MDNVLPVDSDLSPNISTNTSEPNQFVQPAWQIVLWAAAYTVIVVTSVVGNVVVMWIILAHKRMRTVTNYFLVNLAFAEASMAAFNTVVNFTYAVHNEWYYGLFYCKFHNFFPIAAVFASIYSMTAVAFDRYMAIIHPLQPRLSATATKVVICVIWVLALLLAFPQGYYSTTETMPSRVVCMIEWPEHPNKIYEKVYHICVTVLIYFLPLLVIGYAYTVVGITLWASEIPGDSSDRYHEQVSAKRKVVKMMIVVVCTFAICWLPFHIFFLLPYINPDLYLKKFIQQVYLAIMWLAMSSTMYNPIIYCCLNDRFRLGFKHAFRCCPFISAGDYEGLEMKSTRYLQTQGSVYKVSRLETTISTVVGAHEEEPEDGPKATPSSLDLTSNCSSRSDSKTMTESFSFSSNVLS

T2: delta opioid receptor (DOR) (UniProt P41143)
T2 chain: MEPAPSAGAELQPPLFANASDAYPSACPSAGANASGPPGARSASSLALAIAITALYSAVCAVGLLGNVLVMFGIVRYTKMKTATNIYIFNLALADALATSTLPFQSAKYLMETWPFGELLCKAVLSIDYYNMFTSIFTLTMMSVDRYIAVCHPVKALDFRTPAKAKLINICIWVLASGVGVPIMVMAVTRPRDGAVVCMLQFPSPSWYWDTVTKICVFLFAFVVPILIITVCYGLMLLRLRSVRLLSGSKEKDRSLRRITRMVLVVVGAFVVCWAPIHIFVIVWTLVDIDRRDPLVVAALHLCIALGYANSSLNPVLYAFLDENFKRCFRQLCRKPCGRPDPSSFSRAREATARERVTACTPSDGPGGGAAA

T3: rat NK1 receptor (rat, UniProt P14600)
T3 chain: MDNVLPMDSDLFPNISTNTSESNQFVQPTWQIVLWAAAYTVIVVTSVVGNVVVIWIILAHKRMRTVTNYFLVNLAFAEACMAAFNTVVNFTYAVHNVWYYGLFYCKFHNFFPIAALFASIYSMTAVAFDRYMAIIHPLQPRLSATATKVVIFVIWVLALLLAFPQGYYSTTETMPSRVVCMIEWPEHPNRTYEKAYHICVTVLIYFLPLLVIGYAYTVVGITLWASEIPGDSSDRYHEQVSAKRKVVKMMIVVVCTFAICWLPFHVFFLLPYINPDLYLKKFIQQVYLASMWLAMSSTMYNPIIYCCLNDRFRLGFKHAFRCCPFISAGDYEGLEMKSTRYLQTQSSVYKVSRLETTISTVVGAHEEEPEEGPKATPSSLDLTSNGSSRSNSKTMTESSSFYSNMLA


Biological target: T1, human NK1 receptor
Experiment: competition

[Dmt][dA]FGYPLW (not fully specified (C-terminus)) [AKG118] gave a Ki of 2.34 nM.

Biological target: T2, delta opioid receptor (DOR)
Experiment: competition

Going from Y[dA]G[NMeF]PLW-{NH(3,5-(CF3)2-benzyl)} [AKG117] to XAGFPLW (Dmt1, D-Ala2; C-terminal NH-Bn(3',5'-(CF3)2)) [AKG116], the Ki falls from 237 nM to 1 nM (240-fold). The second binds more tightly here.

With XAGFPLW (Dmt1, D-Ala2, Phe(4-F)4; C-terminal NH-Bn(3',5'-(CF3)2)) [AKG127] the Ki was 1 nM.

Biological target: T3, rat NK1 receptor
Experiment: competition

Going from Y[dA]G[NMeF]PLW-{NH(3,5-(CF3)2-benzyl)} [AKG117] to XAGFPLW (Dmt1, D-Ala2; C-terminal NH-Bn(3',5'-(CF3)2)) [AKG116], the Ki falls from 61.1 nM to 26.9 nM (2.3-fold). The second binds more tightly here.

Work on XAGFPLW (Dmt1, D-Ala2, Phe(4-F)4; C-terminal NH-Bn(3',5'-(CF3)2)) [AKG127] yielded a Ki of 29.4 nM.

Biological target: T3, rat NK1 receptor
Experiment: competition
Remark: another data set of the same source

YPFFPLW [AKG226] and YPFFPLW [AKG222] are within 1.5-fold of each other in Ki: 31.7 nM for the first, 32.4 nM for the second.

Binder YPFFPLW [AKG224] has a Ki of 33.7 nM.

biological target: mu opioid receptor (MOR) (UniProt P35372); experiment: competition
Sequence (P35372 whole entry): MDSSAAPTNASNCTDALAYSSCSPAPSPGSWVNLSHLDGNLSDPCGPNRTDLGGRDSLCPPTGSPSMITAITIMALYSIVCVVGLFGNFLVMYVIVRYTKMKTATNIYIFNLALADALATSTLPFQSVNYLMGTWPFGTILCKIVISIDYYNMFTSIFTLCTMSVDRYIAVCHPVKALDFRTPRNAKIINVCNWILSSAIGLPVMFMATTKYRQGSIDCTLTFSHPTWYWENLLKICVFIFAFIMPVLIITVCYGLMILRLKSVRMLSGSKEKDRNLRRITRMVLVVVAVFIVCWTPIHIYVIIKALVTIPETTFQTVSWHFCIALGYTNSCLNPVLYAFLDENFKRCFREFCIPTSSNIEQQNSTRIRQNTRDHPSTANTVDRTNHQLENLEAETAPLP

[Dmt][dA]FGYPLW (not fully specified (C-terminus)) [AKG118] gave a Ki of 1 nM.

biological target: mu opioid receptor (MOR) (UniProt P35372); experiment: competition; remark: another data set of the same source

First: Y[dA]GFQPLW (not fully specified (C-terminus)) [AKG105]
Second: Y[dA]GF[dN]PLW-NHBn [AKG102]
The Ki of the first is 2.4-fold lower: 38 nM for the first, 90 nM for the second.

Compared with Y[dA]G[NMeF]QPLW (not fully specified (C-terminus)) [AKG129], Y[dA]GF[dQ]PLW (not fully specified (C-terminus)) [AKG103] is 17-fold higher in Ki: 7 nM for the first, 116 nM for the second. The first binds more tightly here.

Compared with Y[dA]G[Phe(4-F)]QPLW-NHBn [AKG142], Y[dA]GFNPLW (not fully specified (C-terminus)) [AKG104] is 6.4-fold higher in Ki: 8 nM for the first, 51 nM for the second.

Work on Y[dA]G[NMePhe(4-F)]QPLW-NHBn [AKG143] yielded a Ki of 2 nM.

Biological target: T1, human NK1 receptor
Experiment: competition
Remark: another data set of the same source

First: Y[dA]G[NMeF]PLW-{NH(3,5-(CF3)2-benzyl)} [AKG117]
Second: XAGFPLW (Dmt1, D-Ala2; C-terminal NH-Bn(3',5'-(CF3)2)) [AKG116]
The Ki of the first is 2.4-fold higher: 3.35 nM for the first, 1.4 nM for the second. The second binds more tightly here.

Binder XAGFPLW (Dmt1, D-Ala2, Phe(4-F)4; C-terminal NH-Bn(3',5'-(CF3)2)) [AKG127] has a Ki of 0.88 nM.

biological target: mu opioid receptor (MOR) (UniProt P35372); experiment: competition; remark: another data set of the same source

Compared with Y[dA]G[NMeF]PLW-{NH(3,5-(CF3)2-benzyl)} [AKG117], XAGFPLW (Dmt1, D-Ala2; C-terminal NH-Bn(3',5'-(CF3)2)) [AKG116] is […]-fold lower in Ki: 27 nM for the first, 3 nM for the second.

Work on XAGFPLW (Dmt1, D-Ala2, Phe(4-F)4; C-terminal NH-Bn(3',5'-(CF3)2)) [AKG127] yielded a Ki of 1 nM.

Biological target: T2, delta opioid receptor (DOR)
Experiment: competition
Remark: another data set of the same source

Going from Y[dA]GFQPLW (not fully specified (C-terminus)) [AKG105] to Y[dA]GF[dN]PLW-NHBn [AKG102], the Ki rises from 9 nM to 54 nM (6-fold). The first binds more tightly here.

Compared with Y[dA]G[NMeF]QPLW (not fully specified (C-terminus)) [AKG129], Y[dA]G[Phe(4-F)]QPLW-NHBn [AKG142] is 2-fold higher in Ki: 1 nM for the first, 2 nM for the second. The first binds more tightly here.

Going from Y[dA]GFNPLW (not fully specified (C-terminus)) [AKG104] to Y[dA]G[NMePhe(4-F)]QPLW-NHBn [AKG143], the Ki falls from 17 nM to 0.7 nM (24-fold).

Biological target: T2, delta opioid receptor (DOR)
Experiment: competition
Remark: another data set of the same source

Work on [Dmt][dA]FGYPLW (not fully specified (C-terminus)) [AKG118] yielded a Ki of 3 nM.

Biological target: T3, rat NK1 receptor
Experiment: competition
Remark: another data set of the same source

Compared with Y[dA]GFQPLW (not fully specified (C-terminus)) [AKG105], Y[dA]GF[dN]PLW-NHBn [AKG102] is 11-fold higher in Ki: 12.5 nM for the first, 133 nM for the second. The first binds more tightly here.

Compared with Y[dA]GF[dQ]PLW (not fully specified (C-terminus)) [AKG103], Y[dA]GFNPLW (not fully specified (C-terminus)) [AKG104] is 5.2-fold lower in Ki: 106 nM for the first, 20.2 nM for the second. The second binds more tightly here.

Y[dA]G[NMePhe(4-F)]QPLW-NHBn [AKG143] showed a Ki of 21.7 nM.

Biological target: T1, human NK1 receptor
Experiment: competition
Remark: another data set of the same source

First: Y[dA]GFQPLW (not fully specified (C-terminus)) [AKG105]
Second: Y[dA]GF[dN]PLW-NHBn [AKG102]
The Ki of the first is 2.5-fold lower: 0.92 nM for the first, 2.26 nM for the second. The first binds more tightly here.

Compared with Y[dA]G[NMeF]QPLW (not fully specified (C-terminus)) [AKG129], Y[dA]GF[dQ]PLW (not fully specified (C-terminus)) [AKG103] is 3.3-fold higher in Ki: 0.83 nM for the first, 2.71 nM for the second.

First: Y[dA]G[Phe(4-F)]QPLW-NHBn [AKG142]
Second: Y[dA]GFNPLW (not fully specified (C-terminus)) [AKG104]
The Ki of the first is 4.9-fold higher: 5.71 nM for the first, 1.16 nM for the second. The second binds more tightly here.

In the case of Y[dA]G[NMePhe(4-F)]QPLW-NHBn [AKG143], the Ki is reported as 3.2 nM.

Biological target: T3, rat NK1 receptor
Experiment: competition
Remark: another data set of the same source

[Dmt][dA]FGYPLW (not fully specified (C-terminus)) [AKG118] gave a Ki of 25.4 nM.

Biological target: T1, human NK1 receptor
Experiment: competition
Remark: another data set of the same source

YPFFPLW [AKG226] and YPFFPLW [AKG222] are within 1.5-fold of each other in Ki: 5.9 nM for the first, 4.19 nM for the second.

YPFFPLW [AKG224] showed a Ki of 3.39 nM.

From US11141452 (dated 2021)
